Positions count from the first letter of the chain named. Names and notes keep the numbering of the source.
T1: human FcγRIIA (human, UniProt P12318 36-218)
T1 construct: Bought protein, construct not described
T1 sequence (looked up): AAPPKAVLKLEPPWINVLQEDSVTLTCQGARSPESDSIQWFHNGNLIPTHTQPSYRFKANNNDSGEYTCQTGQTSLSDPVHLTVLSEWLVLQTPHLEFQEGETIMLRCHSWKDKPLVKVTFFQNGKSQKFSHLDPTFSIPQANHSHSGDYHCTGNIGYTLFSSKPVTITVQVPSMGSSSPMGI

T2: human FcγRIIB (human, UniProt P31994 46-217)
T2 construct: Bought protein, construct not described
T2 sequence (looked up): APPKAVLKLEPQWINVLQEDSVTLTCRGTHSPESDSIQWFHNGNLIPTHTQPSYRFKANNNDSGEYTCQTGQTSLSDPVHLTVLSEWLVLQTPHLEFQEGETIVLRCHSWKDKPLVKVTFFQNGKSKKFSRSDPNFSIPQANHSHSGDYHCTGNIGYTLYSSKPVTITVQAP

T3: soluble recombinant tetrameric human DC-SIGN (human, UniProt Q9NNX6 66-404, limits assumed)
T3 construct: also called Dendritic Cell-Specific Intercellular adhesion molecule-3-Grabbing Non-integrin
T3 sequence (looked up): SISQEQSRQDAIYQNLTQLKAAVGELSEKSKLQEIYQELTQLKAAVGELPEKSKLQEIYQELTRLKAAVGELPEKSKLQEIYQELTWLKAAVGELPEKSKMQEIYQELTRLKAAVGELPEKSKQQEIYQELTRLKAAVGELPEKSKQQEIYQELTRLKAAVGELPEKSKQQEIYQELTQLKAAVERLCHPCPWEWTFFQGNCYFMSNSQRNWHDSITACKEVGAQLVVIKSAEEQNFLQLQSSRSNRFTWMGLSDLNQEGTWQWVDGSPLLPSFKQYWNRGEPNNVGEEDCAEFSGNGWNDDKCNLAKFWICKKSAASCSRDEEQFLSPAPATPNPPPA

B1: D221N mutant of hexa-Fc (Fc fusion)
chain: NKTHTCPPCPAPELLGGPSVFLFPPKPKDTLMISRTPEVTCVVVDVSHEDPEVKFNWYVDGVEVHNAKTKPREEQYNSTYRVVSVLTVCLQDWLNGKEYKCKVSNKALPAPIEKTISKAKGQPREPQVYTLPPSREEMTKNQVSLTCLVKGFYPSDIAVEWESNGQPENNYKTTPPVLDSDGSFFLYSKLTVDKSRWQQGNVFSCSVMHEALHNHYTQKSLSLSPGKLVLGPPLYNVSLVMSDTAGTCY
modifications: N-linked glycans at Asn221 (N1), Asn297 (N77) and Asn563 (N236)
notes: Made on the hexa-Fc template in CHO-K1 cells; multimeric, hyper-sialylated
B2: N297A mutant of hexa-Fc (Fc fusion)
chain: B1 chain with N1D, N77A
modifications: N-linked glycan at Asn563 (N236)
notes: Made on the hexa-Fc template in CHO-K1 cells; still multimeric (pentamers and hexamers)
B3: D221N/N297A mutant of hexa-Fc (Fc fusion)
chain: B1 chain with N77A
modifications: N-linked glycans at Asn221 (N1) and Asn563 (N236)
notes: Made on the hexa-Fc template in CHO-K1 cells; multimeric
B4: D221N/N297A/N563A mutant of hexa-Fc (Fc fusion)
chain: B1 chain with N77A, N236A
modifications: N-linked glycan at Asn221 (N1)
notes: Made on the hexa-Fc template in CHO-K1 cells; higher order multimers; also called D221/N297A/N563A
B5: D221N/N563A mutant of hexa-Fc (Fc fusion)
chain: B1 chain with N236A
modifications: N-linked glycans at Asn221 (N1) and Asn297 (N77)
notes: Made on the hexa-Fc template in CHO-K1 cells; runs as higher order multimers approximating dodecamers; also called D221/N563A; D221N/N563A dodecamer
B6: N297A/N563A mutant of hexa-Fc (Fc fusion)
chain: B1 chain with N1D, N77A, N236A
modifications: no glycans attached
notes: Made on the hexa-Fc template in CHO-K1 cells; Results-1 says it cannot form oligomers, Results-2 says it forms higher order multimers; also called glycan deficient mutant; N297A/N563A double-knockout
B7: human Siglec-1 (receptor, UniProt Q9BZZ2 20-1641, looked up)
chain: SWGVSSPQDVQGVKGSCLLIPCIFSFPADVEVPDGITAIWYYDYSGQRQVVSHSADPKLVEARFRGRTEFMGNPEHRVCNLLLKDLQPEDSGSYNFRFEISEVNRWSDVKGTLVTVTEEPRVPTIASPVELLEGTEVDFNCSTPYVCLQEQVRLQWQGQDPARSVTFNSQKFEPTGVGHLETLHMAMSWQDHGRILRCQLSVANHRAQSEIHLQVKYAPKGVKILLSPSGRNILPGELVTLTCQVNSSYPAVSSIKWLKDGVRLQTKTGVLHLPQAAWSDAGVYTCQAENGVGSLVSPPISLHIFMAEVQVSPAGPILENQTVTLVCNTPNEAPSDLRYSWYKNHVLLEDAHSHTLRLHLATRADTGFYFCEVQNVHGSERSGPVSVVVNHPPLTPVLTAFLETQAGLVGILHCSVVSEPLATLVLSHGGHILASTSGDSDHSPRFSGTSGPNSLRLEIRDLEETDSGEYKCSATNSLGNATSTLDFHANAARLLISPAAEVVEGQAVTLSCRSGLSPTPDARFSWYLNGALLHEGPGSSLLLPAASSTDAGSYHCRARDGHSASGPSSPAVLTVLYPPRQPTFTTRLDLDAAGAGAGRRGLLLCRVDSDPPARLQLLHKDRVVATSLPSGGGCSTCGGCSPRMKVTKAPNLLRVEIHNPLLEEEGLYLCEASNALGNASTSATFNGQATVLAIAPSHTLQEGTEANLTCNVSREAAGSPANFSWFRNGVLWAQGPLETVTLLPVARTDAALYACRILTEAGAQLSTPVLLSVLYPPDRPKLSALLDMGQGHMALFICTVDSRPLALLALFHGEHLLATSLGPQVPSHGRFQAKAEANSLKLEVRELGLGDSGSYRCEATNVLGSSNTSLFFQVRGAWVQVSPSPELQEGQAVVLSCQVHTGVPEGTSYRWYRDGQPLQESTSATLRFAAITLTQAGAYHCQAQAPGSATTSLAAPISLHVSYAPRHVTLTTLMDTGPGRLGLLLCRVDSDPPAQLRLLHGDRLVASTLQGVGGPEGSSPRLHVAVAPNTLRLEIHGAMLEDEGVYICEASNTLGQASASADFDAQAVNVQVWPGATVREGQLVNLTCLVWTTHPAQLTYTWYQDGQQRLDAHSIPLPNVTVRDATSYRCGVGPPGRAPRLSRPITLDVLYAPRNLRLTYLLESHGGQLALVLCTVDSRPPAQLALSHAGRLLASSTAASVPNTLRLELRGPQPRDEGFYSCSARSPLGQANTSLELRLEGVRVILAPEAAVPEGAPITVTCADPAAHAPTLYTWYHNGRWLQEGPAASLSFLVATRAHAGAYSCQAQDAQGTRSSRPAALQVLYAPQDAVLSSFRDSRARSMAVIQCTVDSEPPAELALSHDGKVLATSSGVHSLASGTGHVQVARNALRLQVQDVPAGDDTYVCTAQNLLGSISTIGRLQVEGARVVAEPGLDVPEGAALNLSCRLLGGPGPVGNSTFAWFWNDRRLHAEPVPTLAFTHVARAQAGMYHCLAELPTGAAASAPVMLRVLYPPKTPTMMVFVEPEGGLRGILDCRVDSEPLASLTLHLGSRLVASSQPQGAPAEPHIHVLASPNALRVDIEALRPSDQGEYICSASNVLGSASTSTYFGVRALHRLHQFQQ
notes: Construct not described; also called sialoadhesin; CD169

How the values were obtained:
human FcγRIIIA [1] = target: T4, human FcγRIIIA (human, UniProt P08637 17-208); assay: ELISA, receptor coated on plate
T4 construct: Bought protein, construct not described; also called FcgRIIIA
T4 sequence (P08637 17-208 limits assumed): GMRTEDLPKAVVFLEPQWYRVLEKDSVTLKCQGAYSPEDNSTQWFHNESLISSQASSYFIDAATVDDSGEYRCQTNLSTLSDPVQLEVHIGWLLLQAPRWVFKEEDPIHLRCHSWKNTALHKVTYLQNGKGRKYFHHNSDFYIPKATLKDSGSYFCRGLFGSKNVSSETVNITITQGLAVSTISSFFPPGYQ
Description: (§1) ELISAs were used to investigate the binding of oligomeric Fc mutants to FcγRI, FcγRIIA, FcγRIIB, FcγRIIIA and FcγRIIIB (all from R&D laboratories). Receptors were coated down to ELISA plates (Nunc) in carbonate buffer pH9 (Sigma-Aldrich) at 2 μg/ml overnight at 4° C. Plates were then blocked in PBS/0.1% Tween-20 (PBST) containing 4% skimmed milk (Tesco). Plates were then washed three times in PBS/0.1% Tween-20 (PBST) before adding Fc mutants at the indicated concentrations in PBST overnight at 4° C. Plates were washed as above and incubated for 2 h with 1:500 dilution of an alkaline phosphatase conjugated goat Fab′₂ anti-human IgG (Jackson Laboratories). Plates were washed as above and developed for 15 min with 100 μl of a Sigmafast p-nitrophenyl phosphate solution (Sigma-Aldrich). Plates were read at 405 nm and data plotted with Graphpad prism.

human FcγRIIA = target: T1, human FcγRIIA; assay: ELISA, receptor coated on plate
Description: as §1

human FcγRIIIB = target: T5, human FcγRIIIB (human, UniProt O75015 17-200); assay: ELISA, receptor coated on plate
T5 construct: Bought protein, construct not described
T5 sequence (O75015 17-200 limits assumed): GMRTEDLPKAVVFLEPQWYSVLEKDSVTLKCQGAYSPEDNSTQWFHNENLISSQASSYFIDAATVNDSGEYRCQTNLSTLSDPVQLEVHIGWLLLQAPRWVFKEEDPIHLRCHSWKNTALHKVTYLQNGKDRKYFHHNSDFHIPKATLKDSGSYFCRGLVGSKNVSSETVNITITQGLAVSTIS
Description: as §1

human FcγRI = target: T6, human FcγRI (human, UniProt P12314 16-288); assay: ELISA, receptor coated on plate
T6 construct: Bought protein, construct not described
T6 sequence (P12314 16-288 limits assumed): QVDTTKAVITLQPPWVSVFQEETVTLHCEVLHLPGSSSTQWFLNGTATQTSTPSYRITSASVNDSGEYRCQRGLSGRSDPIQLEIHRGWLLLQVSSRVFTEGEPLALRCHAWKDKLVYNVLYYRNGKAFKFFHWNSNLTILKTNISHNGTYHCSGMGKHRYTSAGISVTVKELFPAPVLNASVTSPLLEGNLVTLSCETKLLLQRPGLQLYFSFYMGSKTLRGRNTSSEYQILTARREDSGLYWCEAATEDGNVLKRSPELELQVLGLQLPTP
Description: as §1

human FcγRIIB = target: T2, human FcγRIIB; assay: ELISA, receptor coated on plate
Description: as §1

[2] = target: T3, soluble recombinant tetrameric human …; assay: ELISA, soluble tetrameric human DC-SIGN (FIG. 12 A)
human FcγRIIIA [3] = target: T4, human FcγRIIIA; assay: ELISA, receptor coated on plate (FIG. 4)
Description: as §1

human Siglec-1 = target: B7; assay: ELISA (FIG. 12 B)
[4] = target: T7, monomeric IgG1-Fc control (human, UniProt P01857-1 104-330 = IgG part, limits assumed, N-linked glycan at Asn297); assay: ELISA (FIG. 12 B)
T7 construct: domain: Fc; also called wildtype IgG-Fc; wildtype IgG1-Fc

binding result (human FcγRIIIA [1])	binding result (human FcγRIIA)	binding result (human FcγRIIIB)	binding result (human FcγRI)	binding result (human FcγRIIB)	binding result [2]	binding result (human FcγRIIIA [3])	binding result (human Siglec-1)	binding result [4]	Binder
no binding	no binding	no binding	no binding	no binding					B1
no binding	no binding	no binding	no binding	no binding					B2
no binding	no binding	no binding	no binding	no binding	no binding				B3
					no binding				B4
	binds	binds	binds	binds		binds			B5
							no binding		B6
								no binding	B7
